Reference: publication PMC6980832, “Crystal structures of Triosephosphate Isomerases from Taenia solium and Schistosoma mansoni provide insights for vaccine rationale and drug design against helminth parasites” (PLoS Neglected Tropical Diseases, 2020)

B1: Triosephosphate isomerase from Schistosoma mansoni (enzyme)
chain: GPHMSGSRKFFVGGNWKMNGSRDDNDKLLKLLSEAHFDDNTEVLIAPPSVFLHEIRKSLKKEIHVAAQNCYKVSKGAFTGEISPAMIRDIGCDWVILGHSERRNIFGESDELIAEKVQHALAEGLSVIACIGETLSERESNKTEEVCVRQLKAIANKIKSADEWKRVVVAYEPVWAIGTGKVATPQQAQEVHNFLRKWFKTNAPNGVDEKIRIIYGGSVTAANCKELAQQHDVDGFLVGGASLKPEFTEICKARQR
notes: three additional amino acids (Gly, Pro, His) before the initial methionine, left from the modified pET19 vector; triosephosphate isomerase, Schistosoma mansoni, XP_018647623; all 253 amino acids visible in the crystal structure; also called SmTPI; wild-type SmTPI; source: E. coli strain devoid of its endogenous triosephosphate isomerase gene, purified (two purification steps)
B2: Triosephosphate isomerase from Taenia solium (enzyme)
chain: GPHMTRKLFVGGNWKMNGSYSHINTFFDTLQKADTDPNADIVIGVPACYLKYAQDKAPKGIKIAAENCYKVGSGAFTGEISTEMIKDCGCEWVILGHSERRHIFGESNELIGEKVKHALDSGLNVIPCIGELLSEREAGKTNDVCFAQMDAIAKNVPSKEAWDKVVIAYEPVWAIGTGKTATPAQAQEVHKVVRDWIRKHVDAGIADKVRILYGGSVTASNAKDLGTQPDVDGFLVGGASLKPDFITIINARR
notes: three additional amino acids (Gly, Pro, His) before the initial methionine, left from the modified pET19 vector; triosephosphate isomerase, Taenia solium, GenBank AAG21132.1; all 250 amino acids visible in the crystal structure; also called TsTPI; source: E. coli strain devoid of its endogenous triosephosphate isomerase gene, purified (two purification steps)

What was measured:
[1] = biological target: the molecule itself; experiment: SEC; gel filtration elution profile of wild-type and point mutants of SmTPI; conditions not shown
[2] = biological target: the molecule itself; experiment: crystal structure; sitting drop; protein 20 mg/ml incubated with 10 mM 2-phosphoglyceric acid in storage buffer; homodimer seen in the crystal

| Protein | stoichiometry N [1] | binding result [2] |
| --- | --- | --- |
| B1 | 2 | – |
| B2 | – | binds |
